Reference: patent US20210396736A1, “SCREENING ASSAY” (The University of Bath, priority 2018, published 2021)

Assays:
cJun bZIP = target: T1, cJun bZIP (Homo sapiens, UniProt P05412, S292Y); assay: Further TBS assay experiment, Example 3 (colony count, FIG. 3); format: cell-based; settings: for rescue of DHFR expression / change in number of colonies compared to plate 2: co-expressed with TRE mDHFR and cJun bZIP
T1 construct: cJun with the basic region and leucine zipper (cJun bZip); expressed in transfected cells
Text: This experiment used similar plasmids to those set out in Example 1, with the exception that pET24a was used to express both the lac repressor and test compound using a single plasmid. Specifically, three plasmids were used: i) p300d expressing the mDHFR gene modified to include 15 TREs (TRE mDHFR, generated as described in Example 1); ii) p230d expressing either the leucine zipper part of cJun (cJun LZ) or cJun with the basic region and leucine zipper (cJun bZip); iii) pET24a expressing the lac repressor and either the leucine zipper part of cFos (cFos LZ) or the acidic FosW peptide (acidic FosW).
Plates were generated as set out in the following table:
The number of colonies produced in each plate were counted and this quantification is illustrated in FIG. 3.

AP-1 = AP-1 driven luciferase gene reporter assay; format: cell-based, mammalian; settings: transfected, versus control and dummy vector; FIG. 2
Text: Wild-type AP-1 proteins have a long stretch of basic amino acids at the N-terminal of the protein which enables DNA binding. Acidic versions of AP-1 proteins can be generated with a long stretch of negatively charged amino acids (in place of the positive) which can serve as a DNA mimic. Acidic AP-1 peptide variants can therefore form heterodimers with wild type AP-1 proteins driven by both the dimerization motif and the negative/positive charge interaction, resulting in their sequestration from the DNA.
In order to test whether the peptides identified as being functional antagonists in the TBS assay are also likely to have the same activity in eukaryotic cells, a AP-1 driven luciferase gene reporter assay was carried out. This assay was carried out using no transfection (control), transfected dummy vector, acidic c-Jun, acidic c-Fos and library-derived peptide treated (FosW).

[1] = co-expressed with TRE mDHFR and cJun bZIP (plates 2 and 3)

T1 sequence (P05412 252-315 S292Y limits assumed): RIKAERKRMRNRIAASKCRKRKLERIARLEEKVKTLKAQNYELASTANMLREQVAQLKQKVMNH

Molecule	rescue of DHFR expression / change in number of colonies compared to plate 2 (cJun bZIP)	number of bacterial colonies (cJun bZIP; [1])	number of bacterial colonies (cJun bZIP; control plate 1: co-expressed with TRE mDHFR and cJun LZ (no basic DNA-binding region))	AP-1 driven luciferase activity (AP-1)
cFos LZ: the leucine zipper part of cFos; binds the coiled-coil region of cJun (MASTDTLQAETDQLEDEKYALQTEIANLLKEKEKLGAP)	not able to rescue expression of the DHFR protein	< 20 colonies	> 300 colonies	–
Acidic FosW: library-derived peptide able to dissociate the cJun bZIP protein from the TRE sites in TRE mDHFR (peptide) peptide: MASLEQRAEELARENEELEKEAEELEQELDELQAEIEQLEERNYALRKEIEDLQKQLEKLGAP	substantial increase in the number of colonies	> 200 colonies	–	dramatic reduction in the signal
